Reference: patent publication EP0363874A1, “Enzymes bound to a polymer matrix in water-soluble form” (Etablissement TEXCONTOR, priority 1988, dated 1990)

B1: DAS.2: papain grafted onto starch polyaldehyde (DAS) of aldehyde titre 5.8 x 10⁻³ meq CHO/mg and reduced with sodium borohydride (conjugate, UniProt P00784 134-345, looked up)
Papain: IPEYVDWRQKGAVTPVKNQGSCGSCWAFSAVVTIEGIIKIRTGNLNEYSEQELLDCDRRSYGCNGGYPWSALQLVAQYGIHYRNTYPYEGVQRYCRSREKGPYAAKTDGVRQVQPYNEGALLYSIANQPVSVVLEAAGKDFQLYRGGIFVGPCGNKVDHAVAAVGYGPNYILIKNSWGTGWGENGYIRIKRGTGNSYGVCGLYTSSFYPVKN
modifications: grafted onto starch polyaldehyde, borohydride-reduced
notes: papain grafted onto starch polyaldehyde (DAS) of aldehyde titre 5.8 x 10⁻³ meq CHO/mg and reduced with sodium borohydride
B2: DAS.4: papain grafted onto starch polyaldehyde (DAS) of aldehyde titre 4.68 x 10⁻³ meq CHO/mg and reduced with sodium borohydride (conjugate, UniProt P00784 134-345, looked up)
Papain: B1 Papain
modifications: grafted onto starch polyaldehyde, borohydride-reduced
notes: papain grafted onto starch polyaldehyde (DAS) of aldehyde titre 4.68 x 10⁻³ meq CHO/mg and reduced with sodium borohydride
B3: DAS.3: papain grafted onto starch polyaldehyde (DAS) of aldehyde titre 8 x 10⁻³ meq CHO/mg and reduced with sodium borohydride (conjugate, UniProt P00784 134-345, looked up)
Papain: B1 Papain
modifications: grafted onto starch polyaldehyde, borohydride-reduced
notes: papain grafted onto starch polyaldehyde (DAS) of aldehyde titre 8 x 10⁻³ meq CHO/mg and reduced with sodium borohydride
B4: DAS.1: papain grafted onto starch polyaldehyde (DAS) of aldehyde titre 3.16 x 10⁻³ meq CHO/mg and reduced with sodium borohydride (conjugate, UniProt P00784 134-345, looked up)
Papain: B1 Papain
modifications: grafted onto starch polyaldehyde, borohydride-reduced
notes: papain grafted onto starch polyaldehyde (DAS) of aldehyde titre 3.16 x 10⁻³ meq CHO/mg and reduced with sodium borohydride

What was measured:
[1] = Water solubility of the supported enzyme; type: physicochemical; settings: for WATER SOLUBILITY: papain grafted onto DAS preparations of variable aldehyde titre
Procedure: (§1) The proteolytic activity of the product of Example 1 was determined by the American Pharmacopeia method (USP XXI). Various DAS preparations of variable aldehyde titre were used, obtained by varying the reaction times, in order to establish a comparison between the aldehyde titre, the solubility of the enzymatic preparation and the activity of this latter.

[2] = Release of enzyme from the polymer matrix; type: physicochemical; settings: aqueous solution
[3] = Stability in solid state (retention of enzyme activity); type: physicochemical
[4] = Stability in aqueous solution (retention of enzyme activity); type: physicochemical
[5] = Proteolytic activity of papain grafted onto DAS, American Pharmacopeia method (USP XXI); type: biochemical; settings: papain grafted onto DAS preparations of variable aldehyde titre
Procedure: as §1

Molecule | water-solubility ([1]; lyophilized product) | WATER SOLUBILITY [1] | time without release of enzyme [2] | time for which the activity is maintained [3] | time for which the activity is maintained [4] | µg OF ACTIVE PAPAIN per 100 mg POLYMER [5] [µg per 100 mg POLYMER]
B1 | good water-solubility | YES | at least six months | at least two years | at least six months | 900
B2 | – | YES | – | – | – | 500
B3 | – | YES | – | – | – | 200
B4 | – | MICELLE | – | – | – | 800
